For one data set, the system named is E. coli LPS. The experiment in a line: In vivo modification of E. coli LPS by PagL expressed in E. coli BL21 Star (DE3) (Tricine-SDS-PAGE, GC/MS, ESI-MS). The class given is cell-based. Conditions: GC/MS and ESI-MS data. As to the method:
To LPS-containing samples 0.5 mg/ml proteinase K (end concentration) was added to the sample buffer (28). The samples were incubated for 60 min at 55° C., followed by 10 min at 95° C. to inactivate proteinase K. The samples was then diluted 10 fold by adding sample buffer, after which 2 μl of the sample were applied to a Tricine-SDS-PAGE gel (30). The bromophenol blue was allowed to run into the separating gel at 35 V, after which the voltage was increased to 105 V. After the front reached the bottom of the gel, the samples were left running for another 45 min. The gels were fixed overnight in water/ethanol/acetic acid 11:8:1 (v/v/v) and subsequently stained with silver as described (31).
LPS was isolated using the hot phenol/water extraction method (3). […]
To study whether the cloned PagL homologs were active on E. coli LPS, IPTG was added to exponentially growing E. coli BL21 Star™ (DE3) cells containing the empty vector pET-11a or the pPagL plasmids, and after various incubation periods, samples equivalent to one OD600 unit were collected and their LPS content was analyzed by Tricine-SDS-PAGE. […]
Structural Analysis of PagL-Modified LPS: to determine its fatty acid content, LPS was isolated from bacteria that were grown in the presence of 10 mM MgCl2 to suppress PhoP/PhoQ-regulated modifications of lipid A and analyzed by GC/MS. […]

A further data set deals with B. pertussis LPS. Kind of data set: Expression of PagL and PagP in B. pertussis strain Tohama, lipid A analysed by ESI-MS and Tricine-SDS-PAGE. As to conditions: for relative abundance of lipid A molecular ions: palmitoylate: Table III total of palmitoylated species. The class given is cell-based. As to the method: LPS was isolated using the hot phenol/water extraction method (Westphal and Jann, Methods Carbohydr. Chem. 5; 83-91, 1965) with slight modifications. In short, bacteria were grown in THIJS medium in the presence of 1 mM IPTG (end concentration) for 64 h. Cells were harvested by centrifugation and resuspended in 40 mM sodium phosphate buffer (pH 7.0) containing 5 mM EDTA. The cells were treated overnight with lysozyme at 4° C., after which an equal volume of phenol was added. The suspension was heated to 70° C., incubated for 30 min while shaking, and subsequently cooled to 10° C., after which phases were separated by centrifugation for 10 min at 8,000×g. The upper phase was collected and the extraction was repeated after adding an equal volume of distilled water to the lower phase. The two upper phases were combined, dialysed against tap water until the phenol odour disappeared, freeze-dried, and subsequently taken up in distilled water. The LPS was subsequently pelleted by centrifugation for 3 h at 150,000×g and dissolved in distilled water, after which the LPS concentration was determined by analysing the 3-hydroxytetradecanoic acid content, using a 6890 Agilent gas chromatograph, as described (Welch, Clin. Microbiol. Rev. 1991). For ESI-MS, a 200 μl aliquot of isolated LPS (50 nmol/ml) was freeze-dried and taken up in 0.1 ml 2% acetic acid. The mixture was heated for 2 h at 95° C. to hydrolyse the LPS and release the lipid A moiety. Subsequently, the mixture was cooled to room temperature and centrifuged for 10 min at 16,100×g. The pellet was washed twice in 0.1 ml double-distilled water, taken up in 0.1 ml double-distilled water, and 0.3 ml chloroform/methanol (2:1, v/v) was added. After vigorous vortexing, phases were separated by centrifugation for 10 min at 16,100×g. The […] phase was then used for structural analysis of purified lipid A by nanoelectrospray tandem MS on a Finnigan LCQ in the negative ion mode (Wilm and Mann, Anal. Chem. 1996).
To express PagP and PagL in B. pertussis strain Tohama, the pagL gene of B. bronchiseptica (pagL(Bb)) and the pagP gene of B. pertussis (pagP(Bp)) were expressed from the broad-host range low-copy number expression vector pMMB67EH. As a control, a strain expressing the pagP gene of E. coli (pagP(Ec)) was also constructed. LPS was isolated from wild-type, PagP-expressing, or PagL-expressing B. pertussis strain Tohama and analysed by Tricine-SDS-PAGE. LPS isolated from the PagL(Bb)-expressing strain appeared unaffected on the gel, whereas that from the PagP-expressing appeared potentially modified, since a band with a lower electrophoretic mobility than that of wild-type B. pertussis LPS was detected (FIG. 14). Furthermore, as compared to the PagP(Bp)-expressing strain, the modification-efficiency appeared higher in the PagP(Ec)-expressing strain (FIG. 14). To evaluate the possible LPS modifications in further detail, the lipid A moieties of the strains were analysed by ESI-MS in the negative-ion mode. […] The peak at m/z 1557 represents the characteristic penta-acylated bis-phosphate species that is typically found in B. pertussis (Caroff et al., Microbes. Infect., 1994), whereas the peak at m/z 1477 corresponds to a penta-acylated mono-phosphate species. The two remaining peaks at m/z 1307 and 1251 represent deacylated lipid A species of the molecular ion at m/z 1477, which miss the primary 3-hydroxydecanoic acid residue at the 3 position or a primary 3-hydroxytetradecanoic acid residue (either at the 2 or the 3′ position), respectively. […] Furthermore, the large majority of lipid A species are mono-phosphate forms (˜80%). […]

The nature of data set [1]: In vitro modification assay with refolded or membrane-localized PagL (Tricine-SDS-PAGE). The class given is biochemical. As to conditions: purified N. meningitidis LPS. As to the method:
Refolded PagL(Pa)(−) (10 mg/ml) or cell envelopes isolated from E. coli BL21 Star™ (DE3) containing the empty vector pET-11a or the pPagL plasmids were diluted 10 fold in double distilled water. 4 μl of the diluted refolded protein or cell envelope solution was incubated in 50 mM Hepes (pH 8.0), 0.1% Triton X-100, 0.5 M NaCl, and 0.75 nmol N. meningitidis L3-LPS in a final volume of 10 μl at 37° C. for 16 h. To test whether the reaction was dependent on divalent cations, 5 mM EDTA was added into the reaction with the refolded PagL(Pa)(−). The reactions were terminated by boiling in sample buffer (28), after which the samples were treated with 0.5 mg/ml proteinase K for 1 hour at 55° C., followed by 10 min incubation at 95° C. The samples were diluted 25 fold by adding sample buffer, after which 2 μl of the samples were analysed by Tricine-SDS-PAGE (see above).

Where [2] appears, read: B. pertussis strain Tohama, ESI-MS.

B1: PagL(Bb): lipid A 3-O-deacylase PagL of B. bronchiseptica, SEQ ID No. 1 (protein, listed as Bordetella sp.)
chain: MQFLKKNKPLFGIVTLALACATAQAQPTQGGVSLHYGIGDHYQRVTLNYETPTLWSHQFGGNWGRLDLTPELGASYWWADGSRSPGHVWQASAIPMFRWWTGERFYIEAGIGATVFSSTSFADKRIGSAFQFGDHIGLGFLLTPSNRIGLRYSHFSNAGIKEPNPGLDIVQLTYTYQF
B1: the “lipid A deacylase activity” value with E. coli LPS is “active lipid A deacylases”. Moreover, the “relative content of lipid A species that miss the 3-hydroxydecanoic acid residue at their 3 position” value with B. pertussis LPS (B. pertussis strain Tohama, ESI-MS peak heights) is “more than 92%”. In the data set with B. pertussis LPS (setting [2]), the “relative abundance of lipid A molecular ions: palmitoylate” value is given as 0.0. For the same molecule, the “lipid A 3-O-deacylase activity in B. pertussis” value with B. pertussis LPS (B. pertussis strain Tohama, pMMB67EH expression, ESI-MS) was “active in B. pertussis”.

B2: PagL(Pa): PagL homolog (lipid A 3-O-deacylase) of P. aeruginosa, SEQ ID No:6 (protein, listed as Pseudomonas aeruginosa)
chain: MKKLLPLAVLAALSSVHVASAQAADVSAAVGATGQSGMTYRLGLSWDWDKSWWQTSTGRLTGYWDAGYTYWEGGDEGAGKHSLSFAPVFVYEFAGDSIKPFIEAGIGVAAFSGTRVGDQNLGSSLNFEDRIGAGLKFANGQSVGVRAIHYSNAGLKQPNDGIESYSLFYKIPI
B2: the “lipid A deacylase activity” value in the data set with E. coli LPS is listed as “active lipid A deacylases”.

B3: PagP(Ec): palmitoyl transferase PagP of E. coli, expressed in B. pertussis as a control (protein, UniProt P37001 26-186, looked up)
Lipid A palmitoyltransferase …: NADEWMTTFRENIAQTWQQPEHYDLYIPAITWHARFAYDKEKTDRYNERPWGGGFGLSRWDEKGNWHGLYAMAFKDSWNKWEPIAGYGWESTWRPLADENFHLGLGFTAGVTARDNWNYIPLPVLLPLASVGYGPVTFQMTYIPGTYNNGNVYFAWMRFQF
As to B3, in the data set on B. pertussis LPS (B. pertussis strain Tohama expressing PagP, ESI-MS), the “share of the total lipid A population palmitoylated” value is around 47%. Besides, the “relative abundance of lipid A molecular ions: palmitoylate” value in the data set with B. pertussis LPS (setting [2]) is on record as 46.5. In the data set with B. pertussis LPS (Tricine-SDS-PAGE of B. pertussis LPS, compared to the PagP(Bp)-expressing strain, FIG. 14), the modification-efficiency entry is “higher”.

B4: PagL(Pa)(−): P. aeruginosa PagL without its signal sequence, refolded in vitro from inclusion bodies and purified (protein, UniProt Q9HVD1 24-173, looked up)
Lipid A deacylase PagL: ADVSAAVGATGQSGMTYRLGLSWDWDKSWWQTSTGRLTGYWDAGYTYWEGGDEGAGKHSLSFAPVFVYEFAGDSIKPFIEAGIGVAAFSGTRVGDQNLGSSLNFEDRIGAGLKFANGQSVGVRAIHYSNAGLKQPNDGIESYSLFYKIPI
In the case of B4, the “in vitro deacylation of LPS in the presence of EDTA” value in data set [1] (5 mM EDTA, FIG. 13B) is “deacylation of LPS was still observed”. The “in vitro modification of externally added LPS” value in data set [1] (37° C., detergent-containing buffer, FIG. 13) is “converted into a form with a higher electrophoretic mobility”.
